Experimental data: the supplement of paper PMC9170038

System: MS2 coat protein
Assay: apparent KD of MS2 coat protein; designed switch direction (-1 OFF switch, 1 ON switch): -1; higher = weaker reporter binding
Summary of the method: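 The apparent KD reported per design is the median over clusters of curve fits to normalised cluster fluorescence. The RNA switches were transcribed on Illumina chips by stalled E. coli RNA polymerase. SNAP-549-labelled MS2 coat protein was titrated from 0.7 or 1.5 nM, doubling up to 3 µM, in Tris-HCl pH 7.5 buffer containing KCl, MgCl2, BSA, DTT, tRNA and Tween-20, with no input, 200 uM small-molecule ligand, or an oligonucleotide input.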

[1] = input ligand: microRNA oligo, concentration not stated
[2] = Eterna round: R95, input ligand: FMN 200 uM
[3] = Eterna round: R95, input ligand: microRNA oligo, concentration not stated
[4] = Eterna round: R95, input ligand: none

Row | Sequence | apparent KD of MS2 coat protein (input ligand: FMN 200 uM) | apparent KD of MS2 coat protein (input ligand: none) | apparent KD of MS2 coat protein [1] | apparent KD of MS2 coat protein [2] | apparent KD of MS2 coat protein [3] | apparent KD of MS2 coat protein [4]
1 | CGCUCACAUGAGGAUCACCCAUGUCAGGAUAUCUCAGUGCAUCCACACGGACGCAUCAAGAGAAGGGACAAAAC [Vinxlusion 3 - Jieux - Exclusion 1] (Eterna round: R97, puzzle: Exclusion 1) | 189 nM | 112 nM |  |  |  | 
2 | CGCUGUUGAGGAUAUGGGCGUGGUUACAUGAGGAUCACCCAUGUGGUGUCGCGCGUGGGUCCAGAAGGCGGCGGUG [-31.8, -28.5 kcal, 16% A] (Eterna round: R97, puzzle: Exclusion 5) | 33.5 nM | 17.5 nM |  |  |  | 
3 | CGGAGCGGCUUAGGAUAUGCUGGAAUAUCCCUGCUCCUCAGAACAUGAGGAUCACCCAUGUACUGGCAGAAGGGAGCUGCAGAG [Inxeedsoxe] (Eterna round: R96, puzzle: Exclusion NG 2) | 21.8 nM | 18.7 nM | 15.4 nM |  |  | 
4 | CGGCACCGAGGAUAUACAUGAGGAUCACCCAUGUUUGUUGGGCCCUUAAGAUCUACGUGUAGAAGGUGGGUCGA [Edaribi] (Eterna round: R96, puzzle: Exclusion 3) | 241 nM | 173 nM | 147 nM |  |  | 
5 | CGGGUGCGGUGAGGAUAUCCGAAAGGAAGUGUAGGAGAAGGCACCAAGAACAUGAGGAUCACCCAUGUGACCUCAUAAGCCCGG [PowerStrip EXNG 1.9] (Eterna round: R96, puzzle: Exclusion NG 1) | 34.9 nM | 406 nM | 254 nM |  |  | 
6 | CGGUAACAUGAGGAUCACCCAUGUGAGGAUAUCGUACGUUCGUCGAUAGACGAUCGUACGAGAAGGCAUGACCG [Mat - Exclusion 1 - Eli Mod - D33] (Eterna round: R97, puzzle: Exclusion 1) | 21.4 nM | 43.9 nM |  |  |  | 
7 | CGGUACUGAGGAUAUACAUGAGGAUCACCCAUGUGUUCAAGCUAGCGUACUGGCAUUAGUAGAAGGCGGUGCUG [JL-ex3-3.21 Brourd mod] (puzzle: Exclusion 3) |  |  |  | 26.7 nM | 14.6 nM | 16.9 nM
8 | CGGUCAUGAGGAUAUCGAGGUUAGUACAUGAGGAUCACCCAUGUUAUCCAGGUGUCGGUUCGAGAAGGCAUGUCCG [LRO-Ex5-12] (puzzle: Exclusion 5) |  |  |  |  | 287 nM | 
9 | CGGUGACAUGAGGAUCACCCAUGUUAGGAUAUGACUUCGUACGCGAACAGGUAUGGAGUCAGAAGGAGCAUCCA [Eternabot (Original) Solution 45] (Eterna round: R97, puzzle: Exclusion 1) | 80.6 nM | 38.4 nM |  |  |  | 
10 | CGGUGCUCGUGGAAACAUGAGGAUCACCCAUGUUGAGUUAGCGAGGAUAUCGGUAACACAUAUCACGAGAAGGCGCGAACCAGA [Ex NG3 #31] (Eterna round: R96, puzzle: Exclusion NG 3) | 23.3 nM | 16 nM | 11.9 nM |  |  | 
11 | CGGUGCUGAGGAUAUACAUGAGGAUCACCCAUGUGUUCCGGCUAGCUGACUGGCGCUUGUAGAAGGCAGUACUG [JL-ex3-2.11 Brourd mod] (puzzle: Exclusion 3) |  |  |  |  | 16.3 nM | 
12 | CGGUGUAACGCAGGAUAUCAUCGCAACUGACGUUGAGAAGGGCGACAUGAGGAUCACCCAUGUGAUUUCUCAAUAUUAUACAUC [Prohibition 84 - Jieux - Exclusion NG 1] (Eterna round: R96, puzzle: Exclusion NG 1) | 212 nM | 59.8 nM | 36.5 nM |  |  | 
13 | CGUACAAGCUUACUAUAGGACAUGAGGAUCACCCAUGUAAUUGACGUUGCAUACAAUCCGUGGAUCCCGGCUGCUCG [Eternabot (L1) Solution 15] (Eterna round: R97, puzzle: Sensor, turn-off variant 1) | 43 nM | 51.6 nM |  |  |  | 
14 | CGUACUAACACGAAAGUGUUAGUACAAUAAGCUUGUGAAACAUGAGGAUCACCCAUGUCCUCAUAAGCUCGUCUUAG [salish99_TOv2_r3_008] (puzzle: Sensor v3, turn-off variant 2) |  |  |  | 17.1 nM | 388 nM | 14.5 nM
15 | CGUACUAACACGAAAGUGUUAGUACAAUAAGCUUGUGAAACAUGAGGAUCACCCAUGUCCUCAUAAGCUCGUCUUAU [salish99_TOv2_r3_007] (Eterna round: R96, puzzle: Sensor v3, turn-off variant 2) | 15.6 nM | 17.9 nM | 486 nM |  |  | 
16 | CGUACUAACACGAAAGUGUUAGUACAAUAAGCUUGUGAAACAUGAGGAUCACCCAUGUCCUCAUAAGCUCGUCUUAU [salish99_TOv2_r3_007] (puzzle: Sensor v3, turn-off variant 2) |  |  |  | 17.1 nM | 967 nM | 15.7 nM
17 | CGUCAGUGAGGAUAUGGUUUCGUGUACAUGAGGAUCACCCAUGUUUCUUGGGACUAAUUACUAGAAGGCACUGACG [JR_Ex5_Sub033] (Eterna round: R97, puzzle: Exclusion 5) | 21.2 nM | 14 nM |  |  |  | 
18 | CGUCCACUUGAGGAUCACCCAAGUUAGGAUAUCUCCCGGCUCGCAAAUGCAGUCGGUCAGAGAAGGAACCAGGG [Qualaon] (Eterna round: R97, puzzle: Exclusion 1) | 59.6 nM | 26.7 nM |  |  |  | 
19 | CGUGACUCAGGAUAUCUAUUAUAUCACAUGAGGAUCACCCAUGUCCAGCGAAAGCUGGAGGGAGAAGGGAGUCACG [Fiskers Ex 5 - 44] (puzzle: Exclusion 5) |  |  |  | 52.3 nM | 136 nM | 108 nM
20 | CGUGACUCAGGAUAUGGAUUAUAUCACAUGAGGAUCACCCAUGUCCAGCGAAAGCUGGAGUCAGAAGGGAGUCACG [Fiskers Ex 5 - 48] (puzzle: Exclusion 5) |  |  |  | 34.9 nM | 70.9 nM | 85.4 nM
21 | CGUGCGUAUGUGAGGAUAUGCUGGUCCUUGGAUCGGCAGAAGGCACAUGAGGAUCACCCAUGUGGUGUCGUUCU [salish99_Bmod_ex4_092] (puzzle: Brourd's mod of Exclusion 4) |  |  |  |  | 129 nM | 
22 | CGUGCGUAUGUGAGGAUAUGCUGGUCCUUGGCUCGGCAGAAGGCACAUGAGGAUCACCCAUGUGGUGUCGUACC [salish99_Bmod_ex4_061] (puzzle: Brourd's mod of Exclusion 4) |  |  |  |  | 18.9 nM | 
23 | CGUGUACGAGGAUAUAGAUUAGAUGACAUGAGGAUCACCCAUGUGAUCAAUCUAUUUAGUUUAGAAGGUGUACAUG [JR_Ex5_Sub051] (Eterna round: R97, puzzle: Exclusion 5) | 16.1 nM | 12.5 nM |  |  |  | 
24 | CGUGUGCAGUAGGAUAUCCAAAUCCUGUGGAUAGGAGAAGGACUGACAUGAGGAUCACCCAUGUGGGUAAAGAC [Velaxediza] (puzzle: Exclusion 6) |  |  |  | 48.8 nM | 63.7 nM | 57.7 nM
25 | CUAAAUCAUGUAGGAUAUGCGUGGCAAAGCUAUGCAGAAGGACAUGAGGAUCACCCAUGUCAUUCCGUCUGGAAACAGACGGGA [Mat - Exclusion NG 1 - Mod of JL - D53] (Eterna round: R96, puzzle: Exclusion NG 1) | 283 nM | 22.8 nM | 18.1 nM |  |  | 
